Test results taken from article PMC9482650, “Quantitative fragmentomics allow affinity mapping of interactomes” (Nature Communications, 2022).

Key:
Experiment in all cases: holdup assay
Parameters in all cases: key: below the threshold = too weak to quantify, mostly under pKd 3.1 to 4
Conditions in all cases: plain residues with an end cap or a label only (N-terminal biotin on a linker: ado-ado)
[1] = target: MAST2, Q6P0Q8
[2] = target: GRIP2_5, Q9C0E4
[3] = target: FRMPD4, Q14CM0
[4] = target: LAP2, Q96RT1
[5] = target: T1, ARHGEF11, O15085
T1 sequence (O15085 42-136, limits assumed, looked up): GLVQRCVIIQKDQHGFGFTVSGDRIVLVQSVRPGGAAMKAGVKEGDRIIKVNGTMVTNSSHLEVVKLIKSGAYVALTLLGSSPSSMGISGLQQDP

[6] = target: T2, RADIL, Q96JH8
T2 sequence (Q96JH8 971-1071, limits assumed, looked up): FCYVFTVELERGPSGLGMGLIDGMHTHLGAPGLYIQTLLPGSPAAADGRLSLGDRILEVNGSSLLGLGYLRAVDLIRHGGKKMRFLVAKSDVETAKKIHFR

[7] = target: SNX27, Q96L92
[8] = target: T3, DLG3_3, Q92796
T3 sequence (Q92796 374-475, limits assumed, looked up): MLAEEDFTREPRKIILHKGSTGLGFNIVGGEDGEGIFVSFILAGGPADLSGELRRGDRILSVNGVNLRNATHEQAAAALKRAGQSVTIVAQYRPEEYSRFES

[9] = target: MAGI2_2, Q86UL8
[10] = target: T4, MPP2, Q14168
T4 sequence (Q14168 180-250, limits assumed, looked up): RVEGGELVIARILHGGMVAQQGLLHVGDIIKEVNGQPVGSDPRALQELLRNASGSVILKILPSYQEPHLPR

[11] = target: T5, NHERF3_1, Q5T2W1
T5 sequence (Q5T2W1 4-100, limits assumed, looked up): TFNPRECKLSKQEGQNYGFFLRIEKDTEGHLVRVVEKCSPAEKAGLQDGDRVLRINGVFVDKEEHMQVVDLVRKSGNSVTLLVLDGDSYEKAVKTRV

[12] = target: IL16_3, Q14005
[13] = target: Inadl_2, Q8NI35
[14] = target: IL16_4, Q14005
[15] = target: T6, LNX2_2, Q8N448
T6 sequence (Q8N448 334-432, limits assumed, looked up): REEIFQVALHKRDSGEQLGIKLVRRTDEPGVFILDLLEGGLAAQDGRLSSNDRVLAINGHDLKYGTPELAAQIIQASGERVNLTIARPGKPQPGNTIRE

[16] = target: T7, GRIP1_5, Q9Y3R0
T7 sequence (Q9Y3R0 568-668, limits assumed, looked up): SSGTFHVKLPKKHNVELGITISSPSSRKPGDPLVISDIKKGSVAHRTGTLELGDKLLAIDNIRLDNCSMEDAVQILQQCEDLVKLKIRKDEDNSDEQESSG

[17] = target: T8, LNX2_3, Q8N448
T8 sequence (Q8N448 463-564, limits assumed, looked up): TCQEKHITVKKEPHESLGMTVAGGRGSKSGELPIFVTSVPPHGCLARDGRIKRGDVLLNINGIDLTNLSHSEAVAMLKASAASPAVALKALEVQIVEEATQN

[18] = target: DLG1_2, Q12959
[19] = target: GIPC2, Q8TF65
[20] = target: T9, DVL3, Q92997
T9 sequence (Q92997 244-331, limits assumed, looked up): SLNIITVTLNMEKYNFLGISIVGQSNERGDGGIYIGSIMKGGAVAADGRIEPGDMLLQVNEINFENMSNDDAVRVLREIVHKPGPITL

[21] = target: TJP2_1, Q9UDY2
[22] = target: NOS1, P29475
[23] = target: T10, LIN7B, Q9HAP6
T10 sequence (Q9HAP6 88-185, limits assumed, looked up): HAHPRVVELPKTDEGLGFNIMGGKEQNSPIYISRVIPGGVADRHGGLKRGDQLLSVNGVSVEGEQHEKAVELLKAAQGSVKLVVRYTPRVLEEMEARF

[24] = target: T11, GRIP1_4, Q9Y3R0
T11 sequence (Q9Y3R0 467-571, limits assumed, looked up): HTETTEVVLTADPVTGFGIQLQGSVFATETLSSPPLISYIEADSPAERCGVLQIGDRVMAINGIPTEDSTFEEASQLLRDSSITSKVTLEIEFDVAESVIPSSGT

[25] = target: T12, TIAM2, Q8IVF5
T12 sequence (Q8IVF5 885-986, limits assumed, looked up): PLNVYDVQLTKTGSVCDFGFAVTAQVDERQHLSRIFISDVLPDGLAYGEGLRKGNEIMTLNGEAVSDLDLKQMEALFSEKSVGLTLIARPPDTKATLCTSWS

[26] = target: PARD3_3, Q8TEW0
PARD3_3, Q8TEW0, sequence (Q8TEW0 582-685): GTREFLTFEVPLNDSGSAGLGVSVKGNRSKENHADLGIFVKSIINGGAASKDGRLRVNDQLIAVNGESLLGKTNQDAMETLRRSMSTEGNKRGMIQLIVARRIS

DLG1_2, Q12959, sequence (Q12959 314-412): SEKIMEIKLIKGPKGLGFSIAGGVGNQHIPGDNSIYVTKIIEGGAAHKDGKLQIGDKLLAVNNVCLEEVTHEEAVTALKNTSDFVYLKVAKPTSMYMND
FRMPD4, Q14CM0, sequence (Q14CM0 67-160): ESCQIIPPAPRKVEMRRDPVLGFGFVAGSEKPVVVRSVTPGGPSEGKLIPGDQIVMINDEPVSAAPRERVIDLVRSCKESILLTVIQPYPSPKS
MAST2, Q6P0Q8, sequence (Q6P0Q8 1099-1202): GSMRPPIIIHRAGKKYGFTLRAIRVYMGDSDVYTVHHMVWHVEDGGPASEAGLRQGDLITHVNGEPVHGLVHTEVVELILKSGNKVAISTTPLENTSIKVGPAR
IL16_3, Q14005, sequence (Q14005 1107-1207): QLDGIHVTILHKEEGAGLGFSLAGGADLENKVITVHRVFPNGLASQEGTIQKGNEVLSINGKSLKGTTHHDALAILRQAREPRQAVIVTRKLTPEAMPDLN
Inadl_2, Q8NI35, sequence (Q8NI35 238-335): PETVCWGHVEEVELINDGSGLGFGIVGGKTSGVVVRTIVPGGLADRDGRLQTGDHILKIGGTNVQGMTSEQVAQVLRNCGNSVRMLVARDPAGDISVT
TJP2_1, Q9UDY2, sequence (Q9UDY2 24-128): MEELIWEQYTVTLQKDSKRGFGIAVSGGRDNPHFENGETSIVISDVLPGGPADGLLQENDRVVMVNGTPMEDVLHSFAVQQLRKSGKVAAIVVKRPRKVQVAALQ
IL16_4, Q14005, sequence (Q14005 1229-1329): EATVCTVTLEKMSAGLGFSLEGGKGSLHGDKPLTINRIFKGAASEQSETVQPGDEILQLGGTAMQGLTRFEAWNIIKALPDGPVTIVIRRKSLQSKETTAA
NOS1, P29475, sequence (P29475 9-101): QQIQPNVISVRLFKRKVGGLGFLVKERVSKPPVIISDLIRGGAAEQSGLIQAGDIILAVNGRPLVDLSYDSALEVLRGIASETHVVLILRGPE
GRIP2_5, Q9C0E4, sequence (Q9C0E4 544-642): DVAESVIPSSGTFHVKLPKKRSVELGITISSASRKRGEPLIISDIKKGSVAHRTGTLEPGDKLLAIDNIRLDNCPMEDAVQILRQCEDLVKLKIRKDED
GIPC2, Q8TF65, sequence (Q8TF65 112-203): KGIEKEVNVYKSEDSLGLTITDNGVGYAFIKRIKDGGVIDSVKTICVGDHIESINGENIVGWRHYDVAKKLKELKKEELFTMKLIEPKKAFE
MAGI2_2, Q86UL8, sequence (Q86UL8 410-522): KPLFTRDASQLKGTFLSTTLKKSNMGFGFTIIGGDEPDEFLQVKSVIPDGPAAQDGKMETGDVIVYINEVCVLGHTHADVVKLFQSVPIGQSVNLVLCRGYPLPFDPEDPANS
LAP2, Q96RT1, sequence (Q96RT1 other isoform, or with tags, fused parts or gaps): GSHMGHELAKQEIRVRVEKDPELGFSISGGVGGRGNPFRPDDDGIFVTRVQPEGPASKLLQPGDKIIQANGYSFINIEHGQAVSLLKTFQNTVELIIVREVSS

Binder: SSSVNVSSNL [CXCR1, P25024]
- pKd [1]: 5.13
- pKd [2]: below the threshold
- pKd [3]: 3.57
- pKd [4]: below the threshold
- pKd [5]: 3.75
- pKd [6]: below the threshold
- pKd [7]: 3.68
- pKd [8]: below the threshold
- pKd [9]: below the threshold
- pKd [10]: below the threshold
- pKd [11]: 4.43
- pKd [12]: below the threshold
- pKd [13]: below the threshold
- pKd [14]: below the threshold
- pKd [15]: below the threshold
- pKd [16]: below the threshold
- pKd [17]: below the threshold
- pKd [18]: below the threshold
- pKd [19]: below the threshold
- pKd [20]: below the threshold
- pKd [21]: below the threshold
- pKd [22]: below the threshold
- pKd [23]: 3.58
- pKd [24]: below the threshold
- pKd [25]: below the threshold
- pKd [26]: below the threshold

Binder: NNMAFETTHF [SLC5A12, Q1EHB4]
- pKd [1]: 5.56
- pKd [2]: below the threshold
- pKd [3]: below the threshold
- pKd [4]: below the threshold
- pKd [5]: 3.63
- pKd [6]: below the threshold
- pKd [7]: 5.62
- pKd [8]: below the threshold
- pKd [9]: below the threshold
- pKd [10]: below the threshold
- pKd [11]: 5.03
- pKd [12]: below the threshold
- pKd [13]: below the threshold
- pKd [14]: below the threshold
- pKd [15]: below the threshold
- pKd [16]: below the threshold
- pKd [17]: below the threshold
- pKd [18]: below the threshold
- pKd [19]: below the threshold
- pKd [20]: below the threshold
- pKd [21]: below the threshold
- pKd [22]: below the threshold
- pKd [23]: 3.62
- pKd [24]: below the threshold
- pKd [25]: below the threshold
- pKd [26]: below the threshold

Binder: KKTPVSRSHL [SLC22A3, O75751]
- pKd [1]: 4.69
- pKd [2]: below the threshold
- pKd [3]: 3.58
- pKd [4]: below the threshold
- pKd [5]: 3.56
- pKd [6]: below the threshold
- pKd [7]: 3.65
- pKd [8]: below the threshold
- pKd [9]: below the threshold
- pKd [10]: below the threshold
- pKd [11]: 4.39
- pKd [12]: below the threshold
- pKd [13]: below the threshold
- pKd [14]: below the threshold
- pKd [15]: below the threshold
- pKd [16]: below the threshold
- pKd [17]: below the threshold
- pKd [18]: 3.52
- pKd [19]: below the threshold
- pKd [20]: below the threshold
- pKd [21]: below the threshold
- pKd [22]: below the threshold
- pKd [23]: below the threshold
- pKd [24]: below the threshold
- pKd [25]: below the threshold
- pKd [26]: below the threshold

Binder: LLQEEWETVM [PTH1R, Q03431]
- pKd [1]: 5.68
- pKd [2]: 3.51
- pKd [3]: 4.12
- pKd [4]: below the threshold
- pKd [5]: 3.81
- pKd [6]: 3.99
- pKd [7]: 5.65
- pKd [8]: below the threshold
- pKd [9]: below the threshold
- pKd [10]: below the threshold
- pKd [11]: 5.63
- pKd [12]: below the threshold
- pKd [13]: below the threshold
- pKd [14]: 3.93
- pKd [15]: below the threshold
- pKd [16]: below the threshold
- pKd [17]: below the threshold
- pKd [18]: below the threshold
- pKd [19]: below the threshold
- pKd [20]: below the threshold
- pKd [21]: below the threshold
- pKd [22]: below the threshold
- pKd [23]: below the threshold
- pKd [24]: below the threshold
- pKd [25]: below the threshold
- pKd [26]: 4.33

Binder: LPPPESESKV [KCNJ9, Q92806]
- pKd [1]: 4.9
- pKd [2]: below the threshold
- pKd [3]: below the threshold
- pKd [4]: 3.85
- pKd [5]: below the threshold
- pKd [6]: below the threshold
- pKd [7]: 5.43
- pKd [8]: below the threshold
- pKd [9]: below the threshold
- pKd [10]: below the threshold
- pKd [11]: 4.15
- pKd [12]: below the threshold
- pKd [13]: below the threshold
- pKd [14]: below the threshold
- pKd [15]: 3.52
- pKd [16]: below the threshold
- pKd [17]: below the threshold
- pKd [18]: 3.54
- pKd [19]: below the threshold
- pKd [20]: below the threshold
- pKd [21]: below the threshold
- pKd [22]: below the threshold
- pKd [23]: 3.77
- pKd [24]: below the threshold
- pKd [25]: 4.05
- pKd [26]: below the threshold
